Reference: patent US8133680

Legend:
[1] = target: biotinylated bovine serum albumin (bovine) (UniProt P02769); experiment: ellipsometry after affinity microcontact printing; second use of the biotinylated BSA stamp; control
[2] = target: biotinylated bovine serum albumin (bovine) (UniProt P02769); experiment: ellipsometry after affinity microcontact printing; third use of the biotinylated BSA stamp; control
[3] = target: biotinylated bovine serum albumin (bovine) (UniProt P02769); experiment: ellipsometry after affinity microcontact printing from biotinylated BSA stamp (1 mg/ml, 5 h); control

Chain of UniProt P02769 (P02769 25-607 limits assumed): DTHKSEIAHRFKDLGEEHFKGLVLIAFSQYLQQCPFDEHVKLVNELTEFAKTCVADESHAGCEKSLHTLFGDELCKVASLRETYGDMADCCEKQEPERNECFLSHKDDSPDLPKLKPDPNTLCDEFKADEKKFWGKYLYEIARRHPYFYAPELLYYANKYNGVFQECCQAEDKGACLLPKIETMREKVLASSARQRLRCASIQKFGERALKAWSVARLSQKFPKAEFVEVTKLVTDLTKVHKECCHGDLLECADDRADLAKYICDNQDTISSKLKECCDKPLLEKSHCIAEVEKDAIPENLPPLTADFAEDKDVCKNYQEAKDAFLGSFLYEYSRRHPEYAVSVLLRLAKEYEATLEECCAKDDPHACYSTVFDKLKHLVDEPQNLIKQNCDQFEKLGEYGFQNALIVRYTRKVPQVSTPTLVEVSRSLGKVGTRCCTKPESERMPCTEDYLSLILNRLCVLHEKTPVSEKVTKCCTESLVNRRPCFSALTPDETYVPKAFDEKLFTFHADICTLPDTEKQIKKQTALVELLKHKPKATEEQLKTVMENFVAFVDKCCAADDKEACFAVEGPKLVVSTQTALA

- change in ellipsometric thickness [1]: 1.5 nm
- change in ellipsometric thickness [2]: 1.2 nm
- change in ellipsometric thickness [3]: 2.3 nm
Substance: anti-goat IgG (antibody)
